Where no end group is shown, it is not given here. [ ]: non-standard residue; d: D form. Aib = CC(C)(N)C(=O)O
Experiments:
Assay in all cases: cell-based or functional assay
human GLP-1 receptor [1] = target: T1, human GLP-1 receptor (human, UniProt P43220 24-463)
human GIP receptor [2] = target: T2, human GIP receptor (human, UniProt P48546 22-466)
T2 sequence (looked up): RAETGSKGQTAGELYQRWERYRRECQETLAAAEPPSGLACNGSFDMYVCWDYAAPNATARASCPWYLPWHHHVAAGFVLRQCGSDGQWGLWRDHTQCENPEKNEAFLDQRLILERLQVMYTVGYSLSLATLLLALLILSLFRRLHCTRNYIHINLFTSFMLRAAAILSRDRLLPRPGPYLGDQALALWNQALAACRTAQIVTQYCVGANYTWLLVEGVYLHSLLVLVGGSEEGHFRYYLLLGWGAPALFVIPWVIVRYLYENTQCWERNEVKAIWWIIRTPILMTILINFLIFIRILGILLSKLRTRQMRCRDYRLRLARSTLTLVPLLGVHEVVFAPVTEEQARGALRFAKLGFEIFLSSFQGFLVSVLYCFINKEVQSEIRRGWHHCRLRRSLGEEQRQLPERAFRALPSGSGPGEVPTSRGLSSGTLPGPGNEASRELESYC

human GLP-1 receptor [3] = target: T1, human GLP-1 receptor; remark: listed apart in the source
human GIP receptor [4] = target: T2, human GIP receptor; remark: listed apart in the source

T1 sequence (P43220 24-463): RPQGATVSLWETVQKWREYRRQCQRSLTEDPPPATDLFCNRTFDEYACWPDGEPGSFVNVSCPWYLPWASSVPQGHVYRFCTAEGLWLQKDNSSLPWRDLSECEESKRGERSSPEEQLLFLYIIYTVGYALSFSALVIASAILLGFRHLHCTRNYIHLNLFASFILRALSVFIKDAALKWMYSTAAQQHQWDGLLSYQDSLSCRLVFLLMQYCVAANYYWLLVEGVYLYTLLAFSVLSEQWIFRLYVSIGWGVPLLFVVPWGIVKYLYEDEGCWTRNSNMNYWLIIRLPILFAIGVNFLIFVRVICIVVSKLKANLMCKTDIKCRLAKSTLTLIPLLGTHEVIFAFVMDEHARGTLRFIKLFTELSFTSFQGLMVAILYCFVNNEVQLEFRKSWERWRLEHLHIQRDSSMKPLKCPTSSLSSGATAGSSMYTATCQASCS

EC50, GLP-1R cAMP induction (human GLP-1 receptor [1]): 0.837 nM | EC50, GIPR cAMP induction (human GIP receptor [2]): 1.5 nM | EC50, GLP-1 Receptor cAMP induction (human GLP-1 receptor [3]): 0.837 nM | Relative Potency, GLP-1 Receptor (human GLP-1 receptor [3]): 131% | EC50, GIP Receptor cAMP induction (human GIP receptor [4]): 1.5 nM | Relative Potency, GIP Receptor (human GIP receptor [4]): 33.3%
B1: Analog 025 (peptide)
peptide: Y[Aib]EGTFTSDYSIYMEKQAAKEFIAWLVKG-NH2
modifications: N-terminus assumed
SMILES: CC[C@H](C)[C@H](NC(=O)[C@H](Cc1ccccc1)NC(=O)[C@H](CCC(=O)O)NC(=O)[C@H](CCCCN)NC(=O)[C@H](C)NC(=O)[C@H](C)NC(=O)[C@H](CCC(N)=O)NC(=O)[C@H](CCCCN)NC(=O)[C@H](CCC(=O)O)NC(=O)[C@H](CCSC)NC(=O)[C@H](Cc1ccc(O)cc1)NC(=O)[C@@H](NC(=O)[C@H](CO)NC(=O)[C@H](Cc1ccc(O)cc1)NC(=O)[C@H](CC(=O)O)NC(=O)[C@H](CO)NC(=O)[C@@H](NC(=O)[C@H](Cc1ccccc1)NC(=O)[C@@H](NC(=O)CNC(=O)[C@H](CCC(=O)O)NC(=O)C(C)(C)NC(=O)[C@@H](N)Cc1ccc(O)cc1)[C@@H](C)O)[C@@H](C)O)[C@@H](C)CC)C(=O)N[C@@H](C)C(=O)N[C@@H](Cc1c[nH]c2ccccc12)C(=O)N[C@@H](CC(C)C)C(=O)N[C@H](C(=O)N[C@@H](CCCCN)C(=O)NCC(N)=O)C(C)C

— patent US20140162945A1 (BEIJING HANMI PHARMACEUTICAL, published 2014)
